EC50 and Max effect data for eight molecules are collected here from patent US20250171562A1 (ALK ABELL, published 2025).

As a reminder, the EC50 is the concentration giving half of the maximal effect.

The labels stand for the following.
B1: CIgG4B1A2(G4S)2 (Fc fusion)
chain 1: GPPCPPCPAPEFLGGPSVFLFPPKPKDTLMISRTPEVTCVVVDVSQEDPEVQFNWYVDGVEVHNAKTKPREEQFNSTYRVVSVLTVLHQDWLNGKEYKCKVSNKGLPSSIEKTISKAKGQPREPQVYTLPPCQEEMTKNQVSLWCLVKGFYPSDIAVEWESNGQPENNYKTTPPVLDSDGSFFLYSRLTVDKSRWQEGNVFSCSVMHEALHNHYTQKSLSLSLGKGGGGSGGGGSQVQLQESGGGLVQTGGSLRLSCAVHGRTFSNTGMGWFRQAPGNERQFVAIISPSGTSTYYADSVKGRFTISRDPAKNTVYLQMNSLKMDDTAVYYCAASYGSNWSTLRHQRRNEYDAWGQGTQVAVS
chain 2: GPPCPPCPAPEFLGGPSVFLFPPKPKDTLMISRTPEVTCVVVDVSQEDPEVQFNWYVDGVEVHNAKTKPREEQFNSTYRVVSVLTVLHQDWLNGKEYKCKVSNKGLPSSIEKTISKAKGQPREPQVCTLPPSQEEMTKNQVSLSCAVKGFYPSDIAVEWESNGQPENNYKTTPPVLDSDGSFFLVSRLTVDKSRWQEGNVFSCSVMHEALHNHYTQKSLSLSLGKGGGGSGGGGSEVQLLESGGGLVQPGGSLRLSCAASGFRFGNYDMAWVRQAPGKRYEWVSSIDTGGDITHYADSVKGRFTISRDNAKNTLYLQMNSLRPEDTAEYWCATDEEYALGPNEFDYYGQGTLVTVS
B2: CIgG4B1A2(G4S)3 (Fc fusion)
chain 1: GPPCPPCPAPEFLGGPSVFLFPPKPKDTLMISRTPEVTCVVVDVSQEDPEVQFNWYVDGVEVHNAKTKPREEQFNSTYRVVSVLTVLHQDWLNGKEYKCKVSNKGLPSSIEKTISKAKGQPREPQVYTLPPCQEEMTKNQVSLWCLVKGFYPSDIAVEWESNGQPENNYKTTPPVLDSDGSFFLYSRLTVDKSRWQEGNVFSCSVMHEALHNHYTQKSLSLSLGKGGGGSGGGGSGGGGSQVQLQESGGGLVQTGGSLRLSCAVHGRTFSNTGMGWFRQAPGNERQFVAIISPSGTSTYYADSVKGRFTISRDPAKNTVYLQMNSLKMDDTAVYYCAASYGSNWSTLRHQRRNEYDAWGQGTQVAVS
chain 2: GPPCPPCPAPEFLGGPSVFLFPPKPKDTLMISRTPEVTCVVVDVSQEDPEVQFNWYVDGVEVHNAKTKPREEQFNSTYRVVSVLTVLHQDWLNGKEYKCKVSNKGLPSSIEKTISKAKGQPREPQVCTLPPSQEEMTKNQVSLSCAVKGFYPSDIAVEWESNGQPENNYKTTPPVLDSDGSFFLVSRLTVDKSRWQEGNVFSCSVMHEALHNHYTQKSLSLSLGKGGGGSGGGGSGGGGSEVQLLESGGGLVQPGGSLRLSCAASGFRFGNYDMAWVRQAPGKRYEWVSSIDTGGDITHYADSVKGRFTISRDNAKNTLYLQMNSLRPEDTAEYWCATDEEYALGPNEFDYYGQGTLVTVS
B3: NIgG4B2A1(G4S)3 (Fc fusion)
chain 1: QVQLVESGGGLVQAGGSLRLSCAVFGSTFSNNVADWYRQAPGKQRELVARISASGATREYGDSVKGRFTISRDDAKNTMYLQMNNLKPEDTAVYRCHKIEWEDLSRKDYWGQGTQVTVSGGGGSGGGGSGGGGSGPPCPPCPAPEFLGGPSVFLFPPKPKDTLMISRTPEVTCVVVDVSQEDPEVQFNWYVDGVEVHNAKTKPREEQFNSTYRVVSVLTVLHQDWLNGKEYKCKVSNKGLPSSIEKTISKAKGQPREPQVYTLPPCQEEMTKNQVSLWCLVKGFYPSDIAVEWESNGQPENNYKTTPPVLDSDGSFFLYSRLTVDKSRWQEGNVFSCSVMHEALHNHYTQKSLSLSLGK
chain 2: EVQLLESGGGLVQPGGSLRLSCAASGFTFGNYDMAWVRQAPGKRPEWVSSIDTGGDITHYADSVKGRFTISRDNAKNTLYLQMNSLRPEDTAVYWCATDEEYALGPNEFDYYGQGTLVTVSSGGGGSGGGGSGGGGSGPPCPPCPAPEFLGGPSVFLFPPKPKDTLMISRTPEVTCVVVDVSQEDPEVQFNWYVDGVEVHNAKTKPREEQFNSTYRVVSVLTVLHQDWLNGKEYKCKVSNKGLPSSIEKTISKAKGQPREPQVCTLPPSQEEMTKNQVSLSCAVKGFYPSDIAVEWESNGQPENNYKTTPPVLDSDGSFFLVSRLTVDKSRWQEGNVFSCSVMHEALHNHYTQKSLSLSLGK
B4: NIgG4B2A1(G4S)2 (Fc fusion)
chain 1: QVQLVESGGGLVQAGGSLRLSCAVFGSTFSNNVADWYRQAPGKQRELVARISASGATREYGDSVKGRFTISRDDAKNTMYLQMNNLKPEDTAVYRCHKIEWEDLSRKDYWGQGTQVTVSGGGGSGGGGSGPPCPPCPAPEFLGGPSVFLFPPKPKDTLMISRTPEVTCVVVDVSQEDPEVQFNWYVDGVEVHNAKTKPREEQFNSTYRVVSVLTVLHQDWLNGKEYKCKVSNKGLPSSIEKTISKAKGQPREPQVYTLPPCQEEMTKNQVSLWCLVKGFYPSDIAVEWESNGQPENNYKTTPPVLDSDGSFFLYSRLTVDKSRWQEGNVFSCSVMHEALHNHYTQKSLSLSLGK
chain 2: EVQLLESGGGLVQPGGSLRLSCAASGFTFGNYDMAWVRQAPGKRPEWVSSIDTGGDITHYADSVKGRFTISRDNAKNTLYLQMNSLRPEDTAVYWCATDEEYALGPNEFDYYGQGTLVTVSSGGGGSGGGGSGPPCPPCPAPEFLGGPSVFLFPPKPKDTLMISRTPEVTCVVVDVSQEDPEVQFNWYVDGVEVHNAKTKPREEQFNSTYRVVSVLTVLHQDWLNGKEYKCKVSNKGLPSSIEKTISKAKGQPREPQVCTLPPSQEEMTKNQVSLSCAVKGFYPSDIAVEWESNGQPENNYKTTPPVLDSDGSFFLVSRLTVDKSRWQEGNVFSCSVMHEALHNHYTQKSLSLSLGK
B5: CIgG4B2A1(G4S)1 (Fc fusion)
chain 1: GPPCPPCPAPEFLGGPSVFLFPPKPKDTLMISRTPEVTCVVVDVSQEDPEVQFNWYVDGVEVHNAKTKPREEQFNSTYRVVSVLTVLHQDWLNGKEYKCKVSNKGLPSSIEKTISKAKGQPREPQVYTLPPCQEEMTKNQVSLWCLVKGFYPSDIAVEWESNGQPENNYKTTPPVLDSDGSFFLYSRLTVDKSRWQEGNVFSCSVMHEALHNHYTQKSLSLSLGKGGGGSQVQLVESGGGLVQAGGSLRLSCAVFGSTFSNNVADWYRQAPGKQRELVARISASGATREYGDSVKGRFTISRDDAKNTMYLQMNNLKPEDTAVYRCHKIEWEDLSRKDYWGQGTQVTVS
chain 2: GPPCPPCPAPEFLGGPSVFLFPPKPKDTLMISRTPEVTCVVVDVSQEDPEVQFNWYVDGVEVHNAKTKPREEQFNSTYRVVSVLTVLHQDWLNGKEYKCKVSNKGLPSSIEKTISKAKGQPREPQVCTLPPSQEEMTKNQVSLSCAVKGFYPSDIAVEWESNGQPENNYKTTPPVLDSDGSFFLVSRLTVDKSRWQEGNVFSCSVMHEALHNHYTQKSLSLSLGKGGGGSEVQLLESGGGLVQPGGSLRLSCAASGFTFGNYDMAWVRQAPGKRPEWVSSIDTGGDITHYADSVKGRFTISRDNAKNTLYLQMNSLRPEDTAVYWCATDEEYALGPNEFDYYGQGTLVTVSS
B6: CIgG4B2A1(RS) (Fc fusion)
chain 1: GPPCPPCPAPEFLGGPSVFLFPPKPKDTLMISRTPEVTCVVVDVSQEDPEVQFNWYVDGVEVHNAKTKPREEQFNSTYRVVSVLTVLHQDWLNGKEYKCKVSNKGLPSSIEKTISKAKGQPREPQVYTLPPCQEEMTKNQVSLWCLVKGFYPSDIAVEWESNGQPENNYKTTPPVLDSDGSFFLYSRLTVDKSRWQEGNVFSCSVMHEALHNHYTQKSLSLSLGKRSQVQLVESGGGLVQAGGSLRLSCAVFGSTFSNNVADWYRQAPGKQRELVARISASGATREYGDSVKGRFTISRDDAKNTMYLQMNNLKPEDTAVYRCHKIEWEDLSRKDYWGQGTQVTVS
chain 2: GPPCPPCPAPEFLGGPSVFLFPPKPKDTLMISRTPEVTCVVVDVSQEDPEVQFNWYVDGVEVHNAKTKPREEQFNSTYRVVSVLTVLHQDWLNGKEYKCKVSNKGLPSSIEKTISKAKGQPREPQVCTLPPSQEEMTKNQVSLSCAVKGFYPSDIAVEWESNGQPENNYKTTPPVLDSDGSFFLVSRLTVDKSRWQEGNVFSCSVMHEALHNHYTQKSLSLSLGKRSEVQLLESGGGLVQPGGSLRLSCAASGFTFGNYDMAWVRQAPGKRPEWVSSIDTGGDITHYADSVKGRFTISRDNAKNTLYLQMNSLRPEDTAVYWCATDEEYALGPNEFDYYGQGTLVTVSS
B7: NIgG4B2A1(G4S)1 (Fc fusion)
chain 1: QVQLVESGGGLVQAGGSLRLSCAVFGSTFSNNVADWYRQAPGKQRELVARISASGATREYGDSVKGRFTISRDDAKNTMYLQMNNLKPEDTAVYRCHKIEWEDLSRKDYWGQGTQVTVSGGGGSGPPCPPCPAPEFLGGPSVFLFPPKPKDTLMISRTPEVTCVVVDVSQEDPEVQFNWYVDGVEVHNAKTKPREEQFNSTYRVVSVLTVLHQDWLNGKEYKCKVSNKGLPSSIEKTISKAKGQPREPQVYTLPPCQEEMTKNQVSLWCLVKGFYPSDIAVEWESNGQPENNYKTTPPVLDSDGSFFLYSRLTVDKSRWQEGNVFSCSVMHEALHNHYTQKSLSLSLGK
chain 2: EVQLLESGGGLVQPGGSLRLSCAASGFTFGNYDMAWVRQAPGKRPEWVSSIDTGGDITHYADSVKGRFTISRDNAKNTLYLQMNSLRPEDTAVYWCATDEEYALGPNEFDYYGQGTLVTVSSGGGGSGPPCPPCPAPEFLGGPSVFLFPPKPKDTLMISRTPEVTCVVVDVSQEDPEVQFNWYVDGVEVHNAKTKPREEQFNSTYRVVSVLTVLHQDWLNGKEYKCKVSNKGLPSSIEKTISKAKGQPREPQVCTLPPSQEEMTKNQVSLSCAVKGFYPSDIAVEWESNGQPENNYKTTPPVLDSDGSFFLVSRLTVDKSRWQEGNVFSCSVMHEALHNHYTQKSLSLSLGK
B8: NIgG4B2A1(RS) (Fc fusion)
chain 1: QVQLVESGGGLVQAGGSLRLSCAVFGSTFSNNVADWYRQAPGKQRELVARISASGATREYGDSVKGRFTISRDDAKNTMYLQMNNLKPEDTAVYRCHKIEWEDLSRKDYWGQGTQVTVSRSGPPCPPCPAPEFLGGPSVFLFPPKPKDTLMISRTPEVTCVVVDVSQEDPEVQFNWYVDGVEVHNAKTKPREEQFNSTYRVVSVLTVLHQDWLNGKEYKCKVSNKGLPSSIEKTISKAKGQPREPQVYTLPPCQEEMTKNQVSLWCLVKGFYPSDIAVEWESNGQPENNYKTTPPVLDSDGSFFLYSRLTVDKSRWQEGNVFSCSVMHEALHNHYTQKSLSLSLGK
chain 2: EVQLLESGGGLVQPGGSLRLSCAASGFTFGNYDMAWVRQAPGKRPEWVSSIDTGGDITHYADSVKGRFTISRDNAKNTLYLQMNSLRPEDTAVYWCATDEEYALGPNEFDYYGQGTLVTVSSRSGPPCPPCPAPEFLGGPSVFLFPPKPKDTLMISRTPEVTCVVVDVSQEDPEVQFNWYVDGVEVHNAKTKPREEQFNSTYRVVSVLTVLHQDWLNGKEYKCKVSNKGLPSSIEKTISKAKGQPREPQVCTLPPSQEEMTKNQVSLSCAVKGFYPSDIAVEWESNGQPENNYKTTPPVLDSDGSFFLVSRLTVDKSRWQEGNVFSCSVMHEALHNHYTQKSLSLSLGK

The target in this test is T1, recombinant human IgE (human, UniProt P01854-1 1-428).
T1 construct: made in-house (ALK); preloaded on immobilised FcεRIα in the displacement ELISA
T1 sequence (P01854 other isoform, or with tags, fused parts or gaps): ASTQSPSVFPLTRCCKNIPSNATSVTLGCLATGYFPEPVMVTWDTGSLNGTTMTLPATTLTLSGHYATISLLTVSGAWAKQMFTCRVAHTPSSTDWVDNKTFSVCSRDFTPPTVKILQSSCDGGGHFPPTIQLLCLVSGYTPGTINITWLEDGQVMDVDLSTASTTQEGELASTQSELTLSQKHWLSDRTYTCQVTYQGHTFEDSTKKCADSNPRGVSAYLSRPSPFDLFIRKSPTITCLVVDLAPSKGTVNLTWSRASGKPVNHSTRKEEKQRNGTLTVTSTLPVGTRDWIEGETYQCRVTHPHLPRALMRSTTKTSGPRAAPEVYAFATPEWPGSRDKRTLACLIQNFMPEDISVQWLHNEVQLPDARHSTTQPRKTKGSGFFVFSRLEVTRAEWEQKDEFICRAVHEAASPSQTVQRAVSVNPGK
Put plainly: IgE-FcεRIα displacement ELISA. An outline of the steps: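 sdAbs at pM–μM were incubated 1 h on preformed complexes of 13 ng/ml recombinant human IgE with avi-tag-biotinylated human FcεRIα captured on streptavidin.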
Background: ELISA stands for enzyme-linked immunosorbent assay.
On to B1, for which the EC50 is 2.7 nM and the Max effect was over 95%.

In the case of B2, the EC50 is 2.5 nM and the Max effect was over 95%.

Regarding B3, the Max effect was over 95%.

For the molecule B4, the Max effect was over 95%.

On to B5, for which the EC50 worked out at 0.8 nM and the Max effect is over 95%.

Consider B6, for which the EC50 amounted to 130 nM and the Max effect is 70%.

Take B7: the Max effect is over 95%.

Take B8: the Max effect was over 95%.
